Data published in PMC9352680, “A comprehensive thermodynamic model for RNA binding by the Saccharomyces cerevisiae Pumilio protein PUF4”.

T1: PUF4 RNA-binding domain (Saccharomyces cerevisiae, UniProt P25339 537-888)
T1 sequence: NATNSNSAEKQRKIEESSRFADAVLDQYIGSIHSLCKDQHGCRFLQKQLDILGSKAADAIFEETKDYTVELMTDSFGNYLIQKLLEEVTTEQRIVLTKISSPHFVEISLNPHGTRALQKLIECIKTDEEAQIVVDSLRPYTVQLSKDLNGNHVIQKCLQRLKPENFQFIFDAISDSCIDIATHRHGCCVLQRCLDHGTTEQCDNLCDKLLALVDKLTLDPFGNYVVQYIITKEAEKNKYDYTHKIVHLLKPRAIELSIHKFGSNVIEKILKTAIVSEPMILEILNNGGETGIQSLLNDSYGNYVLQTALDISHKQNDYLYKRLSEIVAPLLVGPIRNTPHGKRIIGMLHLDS


Biological target: T1, PUF4 RNA-binding domain
Assay: Mg; RNA-MaP; 20 mM Na-HEPES pH 7.4, 30 mM KOAc, 0.75 mM MgCl2, 0.1% Tween-20, 5% glycerol, 0.1 mg/mL BSA, 2 mM DTT; 25 C; 0.0125-409.6 nM protein
Conditions: tags: N-His6-TEV cleaved; C-SNAP kept, Cy3B-labelled; label: tethered on chip by stalled RNA polymerase

Binder	Kd [nM]
UCUCUUUGUAUUUCUAUCUCUU (ssRNA) [Ib_S1_P5E.1_K5.1_C5.1_H5.1_A5.1_[A7T]_F5.1_[T8C]_T5.1]	6.46
UCUCUUUGUAUUGCUAUCUCUU (ssRNA) [Ib_S1_P5E.1_K5.1_C5.1_H5.1_A5.1_[A7G]_F5.1_[T8C]_T5.1]	15.4
Id_ii_S2_P5E.3_K5.2_C5.2_[C-2T]_[T-1A]_H5.2_A5.1_F5.1_T5.2_[T11G]_[A12C] (ssRNA) RNA: UUUGAUUAAUAUGAUAUCGUUCUUUCUUAUAUAUUAUUAGCUUCUUUCUCGAUAUCAUAUUAAUCUUU	13.9
Id_ii_S2_P5E.3_K5.2_C5.2_[C-2A]_[T-1C]_H5.2_A5.1_F5.1_T5.2_[T11C]_[A12T] (ssRNA) RNA: UUUGAUUAAUAUGAUAUCGUUCUUUCUACUAUAUUAUUACUUUCUUUCUCGAUAUCAUAUUAAUCUUU	98.6
Id_ii_S2_P5E.3_K5.2_C5.2_[C-2T]_[T-1A]_H5.2_A5.1_F5.1_T5.2_[T11G]_[A12T] (ssRNA) RNA: UUUGAUUAAUAUGAUAUCGUUCUUUCUUAUAUAUUAUUAGUUUCUUUCUCGAUAUCAUAUUAAUCUUU	41.6
Id_ii_S2_P5E.3_K5.2_C5.2_[T-1G]_H5.2_A5.1_F5.1_T5.2_[T11A]_[A12C] (ssRNA) RNA: UUUGAUUAAUAUGAUAUCGUUCUUUCUCGUAUAUUAUUAACUUCUUUCUCGAUAUCAUAUUAAUCUUU	15.5
Id_ii_S2_P5E.3_K5.2_C5.2_[C-2T]_H5.2_A5.1_F5.1_T5.2_[T11C]_[A12G] (ssRNA) RNA: UUUGAUUAAUAUGAUAUCGUUCUUUCUUUUAUAUUAUUACGUUCUUUCUCGAUAUCAUAUUAAUCUUU	152
Id_ii_S2_P5E.3_K5.2_C5.2_[T-1G]_H5.2_A5.1_F5.1_T5.2_[T11G]_[A12T] (ssRNA) RNA: UUUGAUUAAUAUGAUAUCGUUCUUUCUCGUAUAUUAUUAGUUUCUUUCUCGAUAUCAUAUUAAUCUUU	38.1
Id_ii_S2_P5E.3_K5.2_C5.2_[C-2A]_[T-1C]_H5.2_A5.1_F5.1_T5.2_[A12T] (ssRNA) RNA: UUUGAUUAAUAUGAUAUCGUUCUUUCUACUAUAUUAUUAUUUUCUUUCUCGAUAUCAUAUUAAUCUUU	174
Id_ii_S2_P5E.3_K5.2_C5.2_[C-2T]_[T-1A]_H5.2_A5.1_F5.1_T5.2_[T11C] (ssRNA) RNA: UUUGAUUAAUAUGAUAUCGUUCUUUCUUAUAUAUUAUUACAUUCUUUCUCGAUAUCAUAUUAAUCUUU	14.5
Id_ii_S2_P5E.3_K5.2_C5.2_[C-2A]_[T-1A]_H5.2_A5.1_F5.1_T5.2_[T11C] (ssRNA) RNA: UUUGAUUAAUAUGAUAUCGUUCUUUCUAAUAUAUUAUUACAUUCUUUCUCGAUAUCAUAUUAAUCUUU	672
Id_ii_S2_P5E.3_K5.2_C5.2_[C-2A]_[T-1C]_H5.2_A5.1_F5.1_T5.2_[T11A] (ssRNA) RNA: UUUGAUUAAUAUGAUAUCGUUCUUUCUACUAUAUUAUUAAAUUCUUUCUCGAUAUCAUAUUAAUCUUU	319
Id_ii_S2_P5E.3_K5.2_C5.2_[C-2T]_[T-1A]_H5.2_A5.1_F5.1_T5.2_[T11C]_[A12G] (ssRNA) RNA: UUUGAUUAAUAUGAUAUCGUUCUUUCUUAUAUAUUAUUACGUUCUUUCUCGAUAUCAUAUUAAUCUUU	19.5
Id_ii_S2_P5E.3_K5.2_C5.2_[C-2T]_H5.2_A5.1_F5.1_T5.2_[A12T] (ssRNA) RNA: UUUGAUUAAUAUGAUAUCGUUCUUUCUUUUAUAUUAUUAUUUUCUUUCUCGAUAUCAUAUUAAUCUUU	130
Id_ii_S2_P5E.3_K5.2_C5.2_[C-2A]_H5.2_A5.1_F5.1_T5.2_[T11C]_[A12T] (ssRNA) RNA: UUUGAUUAAUAUGAUAUCGUUCUUUCUAUUAUAUUAUUACUUUCUUUCUCGAUAUCAUAUUAAUCUUU	97.6
Id_ii_S2_P5E.3_K5.2_C5.2_[C-2A]_[T-1A]_H5.2_A5.1_F5.1_T5.2_[T11C]_[A12C] (ssRNA) RNA: UUUGAUUAAUAUGAUAUCGUUCUUUCUAAUAUAUUAUUACCUUCUUUCUCGAUAUCAUAUUAAUCUUU	504
Id_ii_S2_P5E.3_K5.2_C5.2_[C-2T]_H5.2_A5.1_F5.1_T5.2_[T11G]_[A12C] (ssRNA) RNA: UUUGAUUAAUAUGAUAUCGUUCUUUCUUUUAUAUUAUUAGCUUCUUUCUCGAUAUCAUAUUAAUCUUU	219
Id_ii_S2_P5E.3_K5.2_C5.2_[C-2T]_[T-1A]_H5.2_A5.1_F5.1_T5.2_[T11C]_[A12T] (ssRNA) RNA: UUUGAUUAAUAUGAUAUCGUUCUUUCUUAUAUAUUAUUACUUUCUUUCUCGAUAUCAUAUUAAUCUUU	6.8
Id_ii_S2_P5E.3_K5.2_C5.2_[C-2T]_[T-1A]_H5.2_A5.1_F5.1_T5.2_[T11A]_[A12T] (ssRNA) RNA: UUUGAUUAAUAUGAUAUCGUUCUUUCUUAUAUAUUAUUAAUUUCUUUCUCGAUAUCAUAUUAAUCUUU	21
Id_ii_S2_P5E.3_K5.2_C5.2_[C-2A]_H5.2_A5.1_F5.1_T5.2_[T11C] (ssRNA) RNA: UUUGAUUAAUAUGAUAUCGUUCUUUCUAUUAUAUUAUUACAUUCUUUCUCGAUAUCAUAUUAAUCUUU	207
Id_ii_S2_P5E.3_K5.2_C5.2_[C-2A]_[T-1A]_H5.2_A5.1_F5.1_T5.2_[T11C]_[A12G] (ssRNA) RNA: UUUGAUUAAUAUGAUAUCGUUCUUUCUAAUAUAUUAUUACGUUCUUUCUCGAUAUCAUAUUAAUCUUU	> 2300

Binder	Kd [nM]
Id_ii_S2_P5E.3_K5.2_C5.2_[C-2A]_[T-1C]_H5.2_A5.1_F5.1_T5.2_[T11C] (ssRNA) RNA: UUUGAUUAAUAUGAUAUCGUUCUUUCUACUAUAUUAUUACAUUCUUUCUCGAUAUCAUAUUAAUCUUU	162
Id_ii_S2_P5E.3_K5.2_C5.2_[C-2T]_[T-1A]_H5.2_A5.1_F5.1_T5.2_[T11A] (ssRNA) RNA: UUUGAUUAAUAUGAUAUCGUUCUUUCUUAUAUAUUAUUAAAUUCUUUCUCGAUAUCAUAUUAAUCUUU	22.6
Id_ii_S2_P5E.3_K5.2_C5.2_[C-2T]_H5.2_A5.1_F5.1_T5.2_[T11C]_[A12C] (ssRNA) RNA: UUUGAUUAAUAUGAUAUCGUUCUUUCUUUUAUAUUAUUACCUUCUUUCUCGAUAUCAUAUUAAUCUUU	66.4
Id_ii_S2_P5E.3_K5.2_C5.2_[C-2T]_H5.2_A5.1_F5.1_T5.2_[T11A]_[A12T] (ssRNA) RNA: UUUGAUUAAUAUGAUAUCGUUCUUUCUUUUAUAUUAUUAAUUUCUUUCUCGAUAUCAUAUUAAUCUUU	374
Id_ii_S2_P5E.3_K5.2_C5.2_[C-2T]_H5.2_A5.1_F5.1_T5.2_[A12C] (ssRNA) RNA: UUUGAUUAAUAUGAUAUCGUUCUUUCUUUUAUAUUAUUAUCUUCUUUCUCGAUAUCAUAUUAAUCUUU	156
Id_ii_S2_P5E.3_K5.2_C5.2_[T-1G]_H5.2_A5.1_F5.1_T5.2_[T11A]_[A12T] (ssRNA) RNA: UUUGAUUAAUAUGAUAUCGUUCUUUCUCGUAUAUUAUUAAUUUCUUUCUCGAUAUCAUAUUAAUCUUU	12.1
Id_ii_S2_P5E.3_K5.2_C5.2_[C-2T]_H5.2_A5.1_F5.1_T5.2_[T11G]_[A12T] (ssRNA) RNA: UUUGAUUAAUAUGAUAUCGUUCUUUCUUUUAUAUUAUUAGUUUCUUUCUCGAUAUCAUAUUAAUCUUU	442
Id_ii_S2_P5E.3_K5.2_C5.2_[C-2A]_H5.2_A5.1_F5.1_T5.2_[T11G]_[A12C] (ssRNA) RNA: UUUGAUUAAUAUGAUAUCGUUCUUUCUAUUAUAUUAUUAGCUUCUUUCUCGAUAUCAUAUUAAUCUUU	762
Id_ii_S2_P5E.3_K5.2_C5.2_[C-2T]_H5.2_A5.1_F5.1_T5.2_[T11C] (ssRNA) RNA: UUUGAUUAAUAUGAUAUCGUUCUUUCUUUUAUAUUAUUACAUUCUUUCUCGAUAUCAUAUUAAUCUUU	131
Id_ii_S2_P5E.3_K5.2_C5.2_[C-2A]_H5.2_A5.1_F5.1_T5.2_[T11C]_[A12C] (ssRNA) RNA: UUUGAUUAAUAUGAUAUCGUUCUUUCUAUUAUAUUAUUACCUUCUUUCUCGAUAUCAUAUUAAUCUUU	142
Id_ii_S2_P5E.3_K5.2_C5.2_[C-2A]_[T-1C]_H5.2_A5.1_F5.1_T5.2_[T11A]_[A12T] (ssRNA) RNA: UUUGAUUAAUAUGAUAUCGUUCUUUCUACUAUAUUAUUAAUUUCUUUCUCGAUAUCAUAUUAAUCUUU	207
Id_ii_S2_P5E.3_K5.2_C5.2_[C-2A]_H5.2_A5.1_F5.1_T5.2_[A12C] (ssRNA) RNA: UUUGAUUAAUAUGAUAUCGUUCUUUCUAUUAUAUUAUUAUCUUCUUUCUCGAUAUCAUAUUAAUCUUU	122
Id_ii_S2_P5E.3_K5.2_C5.2_[C-2T]_[T-1A]_H5.2_A5.1_F5.1_T5.2_[T11A]_[A12C] (ssRNA) RNA: UUUGAUUAAUAUGAUAUCGUUCUUUCUUAUAUAUUAUUAACUUCUUUCUCGAUAUCAUAUUAAUCUUU	9.27
Id_ii_S2_P5E.3_K5.2_C5.2_[C-2T]_[T-1A]_H5.2_A5.1_F5.1_T5.2_[A12C] (ssRNA) RNA: UUUGAUUAAUAUGAUAUCGUUCUUUCUUAUAUAUUAUUAUCUUCUUUCUCGAUAUCAUAUUAAUCUUU	10.7
Id_ii_S2_P5E.3_K5.2_C5.2_[C-2A]_[T-1C]_H5.2_A5.1_F5.1_T5.2_[T11A]_[A12C] (ssRNA) RNA: UUUGAUUAAUAUGAUAUCGUUCUUUCUACUAUAUUAUUAACUUCUUUCUCGAUAUCAUAUUAAUCUUU	102
Id_ii_S2_P5E.3_K5.2_C5.2_[C-2A]_H5.2_A5.1_F5.1_T5.2_[A12T] (ssRNA) RNA: UUUGAUUAAUAUGAUAUCGUUCUUUCUAUUAUAUUAUUAUUUUCUUUCUCGAUAUCAUAUUAAUCUUU	269
Id_ii_S2_P5E.3_K5.2_C5.2_[C-2T]_[T-1A]_H5.2_A5.1_F5.1_T5.2_[A12T] (ssRNA) RNA: UUUGAUUAAUAUGAUAUCGUUCUUUCUUAUAUAUUAUUAUUUUCUUUCUCGAUAUCAUAUUAAUCUUU	19.2
Id_ii_S2_P5E.3_K5.2_C5.2_[T-1G]_H5.2_A5.1_F5.1_T5.2_[T11G]_[A12C] (ssRNA) RNA: UUUGAUUAAUAUGAUAUCGUUCUUUCUCGUAUAUUAUUAGCUUCUUUCUCGAUAUCAUAUUAAUCUUU	28.1
Id_ii_S2_P5E.3_K5.2_C5.2_[C-2A]_H5.2_A5.1_F5.1_T5.2_[T11C]_[A12G] (ssRNA) RNA: UUUGAUUAAUAUGAUAUCGUUCUUUCUAUUAUAUUAUUACGUUCUUUCUCGAUAUCAUAUUAAUCUUU	229
Id_ii_S2_P5E.3_K5.2_C5.2_[T-1G]_H5.2_A5.1_F5.1_T5.2_[A12C] (ssRNA) RNA: UUUGAUUAAUAUGAUAUCGUUCUUUCUCGUAUAUUAUUAUCUUCUUUCUCGAUAUCAUAUUAAUCUUU	28.4
UCUCUUUGUAUUCCUAUCUCUU (ssRNA) [Ib_S1_P5E.1_K5.1_C5.1_H5.1_A5.1_[A7C]_F5.1_[T8C]_T5.1]	17.5
